# Experiment: yeast display, Sf9 membrane polyspecificity reagent, FACS + sequencing; frameworks hold sequencing errors
# How it was run: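 Sorting gates, low and high (top ~1%), were placed on anti-HA fluorescence to track expression and on streptavidin fluorescence to track reagent binding. A clone's polyreactivity label is taken from the gate it came out of. The reagent was 10% biotinylated, detergent-solubilized Sf9 membrane, applied for 1 hour at 4 °C to galactose-induced yeast display cells.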
row,Sequence,polyreactivity (PSR sort gate)
1,QVQLVESGGGLVQPGGTLRLTCAGSGSILTGNAMRWYRQAPGKERELVAAITSGGSTYYADSVKGRFTISRDNAKNTVYLQMNSLNQADSAGYYCAASRWRPLERGTTWLHDYWGQGTQVTVSS,low polyreactivity
2,QVQLVESGGGLVQSGCSLRLSCAASGRIFDRYAMGSYRQAPGKERELVAAISSSGGSTYYADSVKGRFTISRDHAKNTVYLLMNSLKPEDTAVYYCATGTSRYRHQRDYWGQGTQVTVSS,high polyreactivity
3,QVQLVESGGGLVQSGGSLRLSCAASGFIFGGYAMGWYRQAPGTERELVASITWSGGRTFYADSVKGRFTISRDNAKNTVYLQMNSLKPEDTEVYYCAAGIYFTPYYYYPPNPFDYWGQGTQVTVSS,low polyreactivity
4,QVQLVESGGGLVQSGGSLRLSCAASGRIFGAYAMGWYRQAPGKDRELVAAITSAGSTHYADSVKGRFTISRDNAKNTVYLQMNSLKPEDTAVYYCAADGIASAYVLFDAYDFLYDYWGQGTQVTVSS,low polyreactivity
5,QVQLVESGGGLVQSGGSLRLSCAASGRIFRAYAMGWYIQAPGQERELVADITSGSGSTYYADSVKGRFTISRDYANNTVYLHMNSLKTEDTAVYYCAAYVLIRVWEYYYWGQGTQVNVSS,low polyreactivity
6,QVQLVESGGGLVQSGGSLRLSCAASGRIFRFYTMGWYRQAPGKERELVAAITQRGGRTYYADSVKGRFTISRDNAKNTVYLQMNSLKPEDTAVYYCAATTTVAEYDYWGQGTQVTVSS,high polyreactivity
7,QVQLVESGGGLVQSGGSLRLSCAASGRIFTHYAMGWYRQAPGKERELVAALSRSGGSTYYADSVKGRFTISRDNAKNTVYLQLNSLIPEDTADYYCDADGGRYFYRGTYREMNYWAQGTQVTVSS,high polyreactivity
8,QVQLVESGGGLVQSGGSLRLSCAASGRTFFKYSMGWYRQAPGKEREMVATITSSGGITYADSVKGRFTISRDNAKNSVYLQMNSLKPEDTAVYYCNARVWVTHYSELNYWGQGTQVTVSS,low polyreactivity
9,QVQLVESGGGLVQSGGSLRLSCAASGRTFGYNAMGWYRQAPGKERELVAAISRSGDSTYYADSVKGRFTISRDNAKNTVYLQMNSLNPEVTAVFYCATRYVTTGYDYWGQGTQVTVSS,low polyreactivity
10,QVQLVESGGGLVQSGGSLRLSCAASGRTFKSYAMGWYRQAPGKERELVAAITWSGGSTYYADSVKGRFTISRDNAKITVYFQMNSLKPEDTAVYYCAADSVYYYWYGYDYWGQGTQVTVSS,low polyreactivity
11,QVQLVESGGGLVQSGGSLRLSCAASGRTFYNNAMGWYRQAPGKERELVATINNRGGTTYYADSVKGRFTISRDNAKNTVYLQMNSLKPEDTAVYYCANSAQRYSYRYYYWGQGTQVTVSS,high polyreactivity
12,QVQLVESGGGLVQSGGSLRLSCAASGSIFDFYAMGWHRQAPGKERELVATITASGGSTYYADSVKGRFTISRDNAKITVYLQMNSLKPVDTAVYYCNADSVYWGQGTQVTVSS,low polyreactivity
13,QVQLVESGGGLVQSGGSLRLSCAASGSILKPYAMGWYRQAPGKERELVAAIRSSGGRTNYADSVKGRFTISRDNAKNSVYLQMNSLKPEDTAVYYCAAGYVSYWYYRYDYWGQGTQVTVSS,high polyreactivity
14,QVQLVESGGGLVQSGGSLRLSCAASGSTFASNAMGWYRQAPGTEMELVAAISRSADSTYYADSVKGRFTISRDNAKNTVYLQMNSLKPEDTAVYYCAARHSRYRNPKYYYWGQGTQVTVSS,high polyreactivity
15,QVQLVESGGGLVQSGGSLRLSCAASGSTFGFYAMGGYRQAPGKERELVAAISRGGSTNYADSVKGRFTISRDNAKNTVSCQMNSLKPEDTAVYYCAKAYHATSYYWGQGTQVTVSS,low polyreactivity
16,QVQLVESGGGLVQSGGSLRLSCAASGSTFTLYAMGWYRQAPGKERELVAAIRASVGRTYNADSVKGRFTISRDNAKNTVYLQMNSLKPEDTAVYYCNAYGRYGKFRVEYDYWGQGTQVTVSS,low polyreactivity
17,QVQLVESGGGLVQSGGSLRLSCAASGSTIPSYALGWYRHAPGKERELVASITYSDGTTSYADSVKGRFTISRDNAKNTVYLQMNSLKPEDTAVYYCNAVYYREGMDYWGQGTQVTVSS,low polyreactivity
18,QVQLVESGGGLVQSGGSLRLSCDASGITFKYAMGCYSQAPWKESELVAAISWSGGRTYYADSVKGRFTISRDNAKNTVYLQMNSLKPEDTAVYYCNAYRRYNDEDYWGQGTQVTVSS,high polyreactivity
19,QVQLVESGGGLVQTGGSLRLICAASGRTFAVNDMGWYRQARGKERELVAAITWRGDSTYYADSVKGRFTISRDNAKNTVYLQMISLKPEDTAVYYCNAYYDGDWRYTSLETGEHWGQGTQVTVSS,low polyreactivity
20,QVQLVESGGGLVQTGGSLRLSCAASGIIFYYYAMGWYRQAPGKERELVAAISWSGDGTYYADSVKGRFTISRDNAKNTVYLQMNSLKPEDTAVYYCAALNDGFTAYDYLDEYTDYGYWGQGTQVTVSS,low polyreactivity
21,QVQLVESGGGLVQVGGSLRLSCAASGITLSYYAMGWYRQAPRKERELVASITVSRTSTYYADSVKGRFTISRDNAKNTVYLQMNSLKPEDTEVYYCNADGDHPYRRNDYWGQGTQVTVSS,low polyreactivity

row,Sequence,polyreactivity (PSR sort gate)
1,QVQLVESGGGLVRAGGSLRLSCAASGSTFTNNAMGWYRQAPGKERELVAAITWIGGNTYYADTVKGRFTISRDNAKNTVYLQMNSLKPEDTAVYYCAADRRSRYHDVYGWLYYYWGQGTQVTVSS,low polyreactivity
2,QVQLVESGGGLYQAGGSLRLNCAASGYIFQTYAMVWYRQAPGKEREFVAAITSGAGRTSYADSVKGRFTISRDNAKNTVYLELNSLIPEVTAVYYCNARGRKRSYHRKSSDPYGYWGQGNQVTVSS,high polyreactivity
3,QVQLVESGGGLYQAGGSLRLSCAASGRIFRYYAMGWYRQAPGKERELVAAINWSGGSTYYADSVKGRFTISRDNAKNTVYLQMNSLKPEDTAVYYCNTRWYVGDDWGQGTQVTVSS,high polyreactivity
4,QVQLVESGGGLYQAGGSLRLTCAASGNIFYINTMGWYRQAPGKEMELVAAIEASDGSTYYADSVKGRFTISRDKAKNTVYLLMNSLKPEVTAVNYCATRRGYDSVYYFYTLWYYYWGQGTQVTVSS,low polyreactivity
5,QVQLVESGGGRVQAGGSLRLRCAASGRTFRYYAMVWYRQAPGKERELVAAISRTGGSTYYADSVKGRFTISRDNAKNNVYLQMNSLKPEDTAVYYCAARYAEYGSWGQGTQVTVSS,high polyreactivity
6,QVQLVESGGGSLRLSCAASALTFGGYTMGWYRQAPGKERELVAAISSSDSTNYADSVKGRFTISRDNAKNTVYLQMNSLKPEDTAVYYCAADSGQWSRYSSFGDEGDSWGQGTEVTVSS,low polyreactivity
7,QVQLVESGGGSLRLSCAASGLTFGGYTMGWSRQAPGKERELFAAISSSDSTNYADSVKGRFTISRDNAKNTVYLQMNSLKPEDTAVYYCAADSGQWCRFSSFGDEGDSWGQGTQVTVSS,low polyreactivity
8,QVQLVESGGGSLRLSCAASGLTFGGYTMGWYRQAPGKERELVAAISSSDSTNYADSVKGRFTISRDNAKNTVYLQMNSLKPEDTAVYYCAADSGQWSRYSSFGDEGDSWGQGTQVTVSS,low polyreactivity
9,QVQLVESGGGSVQAGGSLRLSCAASGFIFDGYTMGWYRQAPGKERELVAAISRSGGRTYYADSVKGRFTISRDNAKHTVYLQLNSLKPEDTAVYYCAVRYRQYSQTVASDYGYWGQGTQVTVSS,high polyreactivity
10,QVQLVESGGGSVQAGGSLRLSCAASGSIFYPYTMGWSRQAPGKERELVAVITGSGGRTYYADSVKGRFTISRDNAKNTVYLQMNSLKPEDTAVYYCNASPFTVRYYKYEYWGQGTQVTVSS,low polyreactivity
11,QVQLVESGGGVGQAGGSLRLSCAASGSTFDRYTMGWYRQAPGKERELVAAISISGGSTYYADSVKGRFTISRDNAKNTVYLQMNSLKPEVTEVYYCAARLDTVTDYYYWGQGTQVTVSS,low polyreactivity
12,QVQLVESGGGVVQAGGSLRISCAASGSTFAANAMGWYRQAPGKERELVAAISTSGGRSYYADSVKGRFTISRDNAKNTLYLQMNSLKPEDSAGYYCAAYSRTSDRDFDYWGQGTQVTVSS,high polyreactivity
13,QVQLVESGGGVVQAGGSLRLSCAASARTFYRNAMGWYRQAPGKERELVAAITGSGGSTYYADSVKGRFTISRDNAKNTVYLQMNSLKPEDTAVSYCAAGTRIYNSWIRFDYWGQGTQVTVSS,high polyreactivity
14,QVQLVESGGGVVQAGGSLRLSCAASGFTFAQYAMGWYRQAPGKERELVATITRGGITYYADSVKGRFTISRDNAKNTVYLQMNSLKPEDTAVYYCAARVVPPYSRRDDYWGQGTQVTVSS,high polyreactivity
15,QVQLVESGGGVVQAGGSLRLSCAASGFTFVYNAMGWYRQAPGKEREFVAAISGRGGSTYYADSVKGRFTISRDNAKNTVYLQMNSLKPEDTAVYYCATTYSWYYVPYKTHIYYYWGQGTQVTVSS,low polyreactivity
16,QVQLVESGGGVVQAGGSLRLSCAASGITFSRYAMGWYRQAPGKERELVAAISGSGGRTYYADSVKGRFTISRDNAKNTVYLQMNSLKPEDTAVYYCARESSYYKYYYWGQGTQVTVSS,high polyreactivity
17,QVQLVESGGGVVQAGGSLRLSCAASGNIFAVYAMGWYREAPGKERELVAAIRKSGATTYYADSVKGRFTISRDNAKNTVYLQIHSLKPEDTAVYYCAARTFKDAGTAYGSWGQGTQVTVSS,high polyreactivity
18,QVQLVESGGGVVQAGGSLRLSCAASGRIIPYYAMGWYRPAPGTERELVAAISWTDGTTFYADSVKGRFTISRDNAKNTVYLQMNSLKPEDTAVYYCAASVYQDKGYDYWGQGTQVTVSS,low polyreactivity
19,QVQLVESGGGVVQAGGSLRLSCAASGRISDVYVMGWYRQAPGKERELVAAITWSGGDTYYADSVKGRFTISRDNAKNTVYLQMNSLKPEDTAVYYCNADTGKWGGNGWYEFDYWGQGTQVTVSS,low polyreactivity
20,QVQLVESGGGVVQAGGSLRLSCAASGRTFPYNPMGWYRQAPGKERELVAAISGRGGSTYYADSVKGRFTISRDNAKNTVYLQMNSLKPEVSAVYYCDARLPWSYYRTQGYNYWGQGTQVTVSS,high polyreactivity
